Results taken from the supplement of paper PMC10065799, “High-throughput profiling of sequence recognition by tyrosine kinases and SH2 domains using bacterial peptide display” (eLife, 2023).

What was measured:
SHP2-C SH2 = experiment: SH2 binding enrichment of the phosphorylated peptide, bacterial display (enrichment ratio); higher = better substrate or ligand; peptides without Tyr show the background
c-Src SH2 = experiment: as above
Grb2 SH2 = Grb2 SH2 (UniProt P62993); experiment: as above
EPHB2 = EPHB2 (UniProt P29323); experiment: phosphorylation enrichment, bacterial display (enrichment ratio); higher = better substrate or ligand; peptides without Tyr show the background
Fes = Fes (UniProt P07332); experiment: as above
Chain of Fes (P07332 whole entry, looked up): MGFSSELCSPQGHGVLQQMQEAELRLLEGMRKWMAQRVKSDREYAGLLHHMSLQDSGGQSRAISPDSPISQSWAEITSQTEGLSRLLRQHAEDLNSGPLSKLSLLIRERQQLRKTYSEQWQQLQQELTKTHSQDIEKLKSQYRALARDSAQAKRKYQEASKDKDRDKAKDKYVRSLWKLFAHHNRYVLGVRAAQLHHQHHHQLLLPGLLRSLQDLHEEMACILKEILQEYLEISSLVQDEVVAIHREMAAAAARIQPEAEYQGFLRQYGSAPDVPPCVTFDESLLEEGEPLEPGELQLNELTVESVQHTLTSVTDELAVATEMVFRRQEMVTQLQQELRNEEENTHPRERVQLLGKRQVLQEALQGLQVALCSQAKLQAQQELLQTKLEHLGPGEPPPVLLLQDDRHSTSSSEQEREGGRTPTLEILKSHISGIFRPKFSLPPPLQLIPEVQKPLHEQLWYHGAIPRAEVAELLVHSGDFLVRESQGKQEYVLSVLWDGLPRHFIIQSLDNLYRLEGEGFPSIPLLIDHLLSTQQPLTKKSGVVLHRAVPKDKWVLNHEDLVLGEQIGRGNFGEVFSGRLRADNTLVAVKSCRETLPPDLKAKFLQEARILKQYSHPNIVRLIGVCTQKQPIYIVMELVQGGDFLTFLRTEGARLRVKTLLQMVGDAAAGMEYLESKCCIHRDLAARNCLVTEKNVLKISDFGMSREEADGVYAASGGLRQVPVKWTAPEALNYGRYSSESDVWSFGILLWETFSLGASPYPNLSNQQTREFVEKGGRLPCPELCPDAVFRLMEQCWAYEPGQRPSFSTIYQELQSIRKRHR

c-Src = experiment: as above
AncSZ = experiment: as above
EPHB1 = EPHB1 (UniProt P54762); experiment: as above
Chain of EPHB1 (P54762 whole entry, looked up): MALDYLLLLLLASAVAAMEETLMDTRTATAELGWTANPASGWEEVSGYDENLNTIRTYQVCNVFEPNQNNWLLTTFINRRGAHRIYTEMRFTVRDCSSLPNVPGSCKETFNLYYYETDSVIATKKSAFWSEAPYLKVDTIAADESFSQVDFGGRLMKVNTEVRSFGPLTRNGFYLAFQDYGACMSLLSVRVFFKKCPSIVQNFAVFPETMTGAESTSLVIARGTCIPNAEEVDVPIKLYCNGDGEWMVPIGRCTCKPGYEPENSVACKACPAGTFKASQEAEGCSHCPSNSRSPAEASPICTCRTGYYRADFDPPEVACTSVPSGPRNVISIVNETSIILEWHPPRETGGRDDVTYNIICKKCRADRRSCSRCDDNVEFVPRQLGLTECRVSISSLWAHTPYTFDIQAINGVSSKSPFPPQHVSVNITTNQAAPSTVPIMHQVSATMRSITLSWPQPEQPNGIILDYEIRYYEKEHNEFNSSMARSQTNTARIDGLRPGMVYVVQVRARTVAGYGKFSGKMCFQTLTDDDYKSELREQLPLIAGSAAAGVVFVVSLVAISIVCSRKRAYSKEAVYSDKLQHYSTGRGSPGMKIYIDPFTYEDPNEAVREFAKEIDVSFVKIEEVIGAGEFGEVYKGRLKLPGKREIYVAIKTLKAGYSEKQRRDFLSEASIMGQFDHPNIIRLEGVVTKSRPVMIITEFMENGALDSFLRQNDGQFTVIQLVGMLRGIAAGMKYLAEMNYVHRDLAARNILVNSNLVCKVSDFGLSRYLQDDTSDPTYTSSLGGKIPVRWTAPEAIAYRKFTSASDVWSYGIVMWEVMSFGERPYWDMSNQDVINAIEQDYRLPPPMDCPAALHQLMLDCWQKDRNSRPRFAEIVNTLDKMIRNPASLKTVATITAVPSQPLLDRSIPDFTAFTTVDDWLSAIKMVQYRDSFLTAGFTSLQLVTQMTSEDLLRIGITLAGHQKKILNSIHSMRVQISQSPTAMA

Jak2 = Jak2 (UniProt O60674); experiment: as above
Chain of Jak2 (O60674 whole entry, looked up): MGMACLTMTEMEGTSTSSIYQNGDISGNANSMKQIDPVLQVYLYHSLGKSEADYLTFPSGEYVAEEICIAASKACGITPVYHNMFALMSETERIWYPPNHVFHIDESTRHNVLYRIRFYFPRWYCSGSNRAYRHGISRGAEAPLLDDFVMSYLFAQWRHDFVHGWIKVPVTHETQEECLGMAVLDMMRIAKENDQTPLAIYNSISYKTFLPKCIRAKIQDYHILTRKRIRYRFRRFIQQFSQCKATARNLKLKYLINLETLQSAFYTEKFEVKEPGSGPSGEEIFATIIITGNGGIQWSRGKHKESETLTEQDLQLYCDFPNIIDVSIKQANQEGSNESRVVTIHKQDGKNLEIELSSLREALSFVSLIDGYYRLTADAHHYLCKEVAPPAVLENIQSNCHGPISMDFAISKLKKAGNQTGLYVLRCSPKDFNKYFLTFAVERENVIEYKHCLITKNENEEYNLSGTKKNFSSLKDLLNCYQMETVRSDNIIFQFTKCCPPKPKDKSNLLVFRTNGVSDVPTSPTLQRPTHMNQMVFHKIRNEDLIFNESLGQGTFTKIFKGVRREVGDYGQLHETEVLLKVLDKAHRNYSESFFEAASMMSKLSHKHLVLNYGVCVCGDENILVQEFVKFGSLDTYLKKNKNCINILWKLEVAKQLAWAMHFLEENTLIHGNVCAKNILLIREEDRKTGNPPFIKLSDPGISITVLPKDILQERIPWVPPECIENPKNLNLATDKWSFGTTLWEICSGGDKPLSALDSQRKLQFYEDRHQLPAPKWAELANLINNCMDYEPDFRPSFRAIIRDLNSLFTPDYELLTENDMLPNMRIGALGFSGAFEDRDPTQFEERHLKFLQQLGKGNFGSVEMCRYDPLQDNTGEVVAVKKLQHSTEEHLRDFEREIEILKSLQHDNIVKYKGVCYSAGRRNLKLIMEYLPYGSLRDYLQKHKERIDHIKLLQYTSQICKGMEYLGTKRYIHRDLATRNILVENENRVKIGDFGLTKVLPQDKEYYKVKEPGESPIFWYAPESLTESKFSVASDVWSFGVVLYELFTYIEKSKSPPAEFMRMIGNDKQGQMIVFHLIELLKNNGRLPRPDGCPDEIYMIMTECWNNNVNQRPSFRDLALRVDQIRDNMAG

FGFR1 = FGFR1 (UniProt P11362); experiment: as above
Chain of FGFR1 (P11362 whole entry, looked up): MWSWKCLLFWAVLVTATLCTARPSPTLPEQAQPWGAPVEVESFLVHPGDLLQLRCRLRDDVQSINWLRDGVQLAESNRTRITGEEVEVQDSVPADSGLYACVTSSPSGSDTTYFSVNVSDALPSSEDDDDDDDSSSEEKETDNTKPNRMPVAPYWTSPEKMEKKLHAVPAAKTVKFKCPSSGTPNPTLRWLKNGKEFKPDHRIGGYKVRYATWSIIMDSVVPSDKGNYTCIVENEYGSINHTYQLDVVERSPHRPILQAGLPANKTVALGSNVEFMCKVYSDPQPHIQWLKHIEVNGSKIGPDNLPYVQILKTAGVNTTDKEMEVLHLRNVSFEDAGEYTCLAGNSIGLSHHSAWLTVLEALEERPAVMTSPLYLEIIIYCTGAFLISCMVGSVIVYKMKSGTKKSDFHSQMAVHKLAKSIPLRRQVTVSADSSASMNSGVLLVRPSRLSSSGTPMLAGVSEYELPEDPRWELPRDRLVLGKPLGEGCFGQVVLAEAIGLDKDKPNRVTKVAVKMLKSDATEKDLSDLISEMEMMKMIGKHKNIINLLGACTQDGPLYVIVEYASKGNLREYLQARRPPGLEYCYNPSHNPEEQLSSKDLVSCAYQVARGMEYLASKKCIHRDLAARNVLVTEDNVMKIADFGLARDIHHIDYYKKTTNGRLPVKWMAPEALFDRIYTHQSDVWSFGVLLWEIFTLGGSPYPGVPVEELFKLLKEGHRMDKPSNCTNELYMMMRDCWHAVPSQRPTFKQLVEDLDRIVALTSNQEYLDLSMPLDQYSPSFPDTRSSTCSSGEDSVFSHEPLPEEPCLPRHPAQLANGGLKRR

c-Abl (mouse) = experiment: as above
Fyn = Fyn (UniProt P06241); experiment: as above
Hck = Hck (UniProt P08631); experiment: as above
Chain of Hck (P08631 whole entry, looked up): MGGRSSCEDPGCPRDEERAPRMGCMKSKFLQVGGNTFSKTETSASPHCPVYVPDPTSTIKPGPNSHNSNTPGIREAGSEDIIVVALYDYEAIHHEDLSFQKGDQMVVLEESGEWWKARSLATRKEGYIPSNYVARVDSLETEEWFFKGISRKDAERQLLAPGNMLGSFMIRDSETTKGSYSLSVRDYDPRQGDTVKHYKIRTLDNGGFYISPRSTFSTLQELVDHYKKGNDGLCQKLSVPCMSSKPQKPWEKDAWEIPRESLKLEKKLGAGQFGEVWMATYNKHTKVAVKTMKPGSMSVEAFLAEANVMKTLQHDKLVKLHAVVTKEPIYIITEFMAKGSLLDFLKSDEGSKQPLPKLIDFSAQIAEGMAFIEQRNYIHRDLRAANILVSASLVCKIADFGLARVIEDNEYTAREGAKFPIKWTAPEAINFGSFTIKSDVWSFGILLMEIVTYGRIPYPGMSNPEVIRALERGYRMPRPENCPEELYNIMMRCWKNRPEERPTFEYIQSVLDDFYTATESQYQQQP

Fer (mouse) = experiment: as above
FGFR3 = FGFR3 (UniProt P22607); experiment: as above
Chain of FGFR3 (P22607 whole entry, looked up): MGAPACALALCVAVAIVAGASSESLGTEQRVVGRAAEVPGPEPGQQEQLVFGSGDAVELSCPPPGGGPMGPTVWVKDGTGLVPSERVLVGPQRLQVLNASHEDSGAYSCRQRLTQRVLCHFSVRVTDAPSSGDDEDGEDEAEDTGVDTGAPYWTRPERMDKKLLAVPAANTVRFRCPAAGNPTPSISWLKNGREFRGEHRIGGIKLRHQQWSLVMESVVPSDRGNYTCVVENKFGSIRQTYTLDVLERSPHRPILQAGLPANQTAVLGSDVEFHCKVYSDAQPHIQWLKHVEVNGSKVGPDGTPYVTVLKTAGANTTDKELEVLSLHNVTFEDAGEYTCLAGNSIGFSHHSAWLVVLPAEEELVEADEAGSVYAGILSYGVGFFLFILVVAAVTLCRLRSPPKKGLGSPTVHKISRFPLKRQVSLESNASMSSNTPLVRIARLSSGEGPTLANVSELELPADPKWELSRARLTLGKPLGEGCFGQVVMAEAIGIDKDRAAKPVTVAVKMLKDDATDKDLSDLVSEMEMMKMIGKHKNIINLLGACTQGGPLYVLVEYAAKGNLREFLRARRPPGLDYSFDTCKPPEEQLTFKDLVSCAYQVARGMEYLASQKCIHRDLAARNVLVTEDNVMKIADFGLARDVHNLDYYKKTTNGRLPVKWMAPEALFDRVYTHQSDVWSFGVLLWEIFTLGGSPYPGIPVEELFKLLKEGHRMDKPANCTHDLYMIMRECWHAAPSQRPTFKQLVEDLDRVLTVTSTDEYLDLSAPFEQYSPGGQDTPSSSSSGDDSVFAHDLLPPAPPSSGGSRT

MERTK = MERTK (UniProt Q12866); experiment: as above
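For SH2 binding enrichment of the phosphorylated peptide, bacterial display in this document: peptide library displayed on the E. coli surface as eCPX fusions, selected cells deep-sequenced, score is each peptide's frequency after selection divided by its frequency in the input.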
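For phosphorylation enrichment, bacterial display in this document: 11-residue human phosphosite peptides and single-mutation variants displayed on the E. coli surface, counted by deep sequencing, each peptide's frequency after selection divided by its frequency in the unselected input library; frequency after pTyr selection over input frequency; kinase dosed for 20-30% of maximal phosphorylation in three min.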

SH2 binding enrichment (SHP2-C SH2) | SH2 binding enrichment (c-Src SH2) | SH2 binding enrichment (Grb2 SH2) | Sequence | phosphorylation enrichment (EPHB2) | phosphorylation enrichment (Fes) | phosphorylation enrichment (c-Src) | phosphorylation enrichment (AncSZ) | phosphorylation enrichment (EPHB1) | phosphorylation enrichment (Jak2) | phosphorylation enrichment (FGFR1) | phosphorylation enrichment (c-Abl (mouse)) | phosphorylation enrichment (Fyn) | phosphorylation enrichment (Hck) | phosphorylation enrichment (Fer (mouse)) | phosphorylation enrichment (FGFR3) | phosphorylation enrichment (MERTK)
0.922 | 0.473 | 0.793 | QCTSAYLLQPE [NANS_Y188_P189L] | 0.727 | 1.49 | 1.4 | 1.41 | 0.555 | 1.19 | 0.733 | 1.24 | 1.01 | 0.596 | 0.611 | 1.21 | 0.785
0.557 | 0.406 | 0.983 | QDGFSYLSRQM [LDLR_Y847_P848L_YF] | 0.797 | 1.07 | 0.461 | 0.985 | 0.584 | 0.844 | 0.872 | 0.563 | 0.772 | 0.748 | 0.636 | 0.995 | 0.413
0.725 | 0.66 | 1.48 | QDGFSYPSRQM [LDLR_Y847_YF] | 0.479 | 0.53 | 0.398 | 0.378 | 0.218 | 0.454 | 0.453 | 0.621 | 0.434 | 0.522 | 0.409 | 0.325 | 0.415
2.04 | 2.47 | 0.792 | QDRTYYERVRT [SPEN_Y633_S635R] | 0.767 | 0.728 | 1.79 | 0.947 | 0.732 | 0.556 | 0.749 | 0.639 | 1.35 | 5.76 | 2.62 | 0.697 | 0.629
0.705 | 0.443 | 0.575 | QEIATYPRLLE [KRT14_Y415_R416P] | 1.04 | 1.62 | 0.595 | 1.08 | 0.581 | 1.43 | 0.77 | 1.07 | 0.611 | 0.845 | 0.792 | 0.869 | 0.515
0.948 | 0.589 | 1.5 | QEKKGYFEDRC [GLUL_Y336_R341C] | 0.631 | 1.29 | 0.613 | 1.06 | 0.522 | 1 | 0.804 | 0.843 | 0.609 | 0.655 | 0.519 | 0.716 | 0.799
0.827 | 0.626 | 0.985 | QERPEYWDQET [HLA-A_Y83_G80R] | 0.702 | 1.58 | 0.554 | 1.81 | 0.693 | 1.56 | 0.727 | 1.14 | 0.646 | 0.696 | 1.14 | 0.915 | 0.566
0.674 | 0.957 | 0.696 | QGGRCYMMIVD [GAA_Y438_R437C] | 1.29 | 2.69 | 1.03 | 2.31 | 1.35 | 2.11 | 0.815 | 1.81 | 0.87 | 0.769 | 0.948 | 1.83 | 0.928
